Experimental data reported in paper PMC7078309, “New Therapeutic Candidates for the Treatment of Malassezia pachydermatis -Associated Infections” (Scientific Reports, 2020).

Substrate: O=C(O)CCC(=O)C(=O)O
Experiment: NAD/NADH quantification kit, Lineweaver-Burk
Format: biochemical, Malassezia pachydermatis
Settings: without inhibitor; reverse reaction; 2-OG 15-30 mM; NADH
Description: NAD/NADH quantification kit, Lineweaver-Burk on MpSDH

B1: MpSDH (Malassezia pachydermatis) (protein)
chain: MTGTQALWLRCETKPAEHRSALTPTTAKKLINAGFDITVERDPNRIFDDEEFEKVGCHMAEYHSWPKAPKTTPIIGLKELDTPGPDLEHTHIQFAHCYKHQEGWVDVLARFKRGGGKLYDLEFLEDANGRRVAAFGWHAGFAGAALGLLALAEQVEGKVLGAQTKYPNEEALMEKTREAVRVIRKHRPDGRVTSLIIGALGRCGRGAIDCLEKSGLQSDEIVRWDIQETSAKSGPYQEIIDSDLFVNCIYLSKKIPPFVNKESLQAVGDKRRLGMIVDVSCDTTNPNNPIPVYSINTTFDKPTVAVDGFDKLEVISIDHLPTLLPREASEAFSNDLLPSLLQLPLVTGVAGEEALQHVNEEGKGAVWTRAEALFRKHLAEAEANGA
notes: synthetic gene, C-terminal 6xHN tag (pET6xHN-C), expressed in E. coli BL21, Ni-IMAC, 43 kDa band on SDS-PAGE
Work on B1 yielded a Km of 0.25 ± 7.1e-02 mM.
